Source: patent publication US9061070B2, “Treating stroke and other diseases without inhibiting N-type calcium channels” (NoNO, Inc., priority 2007, dated 2015)
Read-outs that look alike come from different tables or passages of the source. Where no end group is shown, it is not given here. [ ]: non-standard residue; d: D form. Tle = CC(C)(C)[C@H](N)C(=O)O; Nva = CCC[C@H](N)C(=O)O

Tests used:
N-type calcium channels = N-type calcium channels (Mus musculus, UniProt O55017); assay: Whole-cell patch clamp recordings of calcium currents in dorsal root ganglion neurons; format: cell-based, Swiss mice
[1] = cited from earlier work
[2] = system: pial 3 vessel occlusion (P3VO) model of stroke; assay: Pial vessel occlusion (P3VO) model of permanent ischemia; format: in vivo, Sprague Dawley rats; conditions: for reduction of infarct size: single dose 3 nmol/g one hour after initiating ischemia, FIG. 3
N-type Ca channels = N-type Ca channels (Homo sapiens, UniProt Q00975); format: binding; conditions: 10 μM peptide
MCAO model of stroke = conditions: previously tested; cited from earlier work
[3] = peptide at 100 μM, mean+/-s.e.m., DRG neurons
[4] = 3 nMol/g i.v. one hour after occlusion, 24 h, FIG. 8

Sequence of N-type calcium channels (O55017 whole entry): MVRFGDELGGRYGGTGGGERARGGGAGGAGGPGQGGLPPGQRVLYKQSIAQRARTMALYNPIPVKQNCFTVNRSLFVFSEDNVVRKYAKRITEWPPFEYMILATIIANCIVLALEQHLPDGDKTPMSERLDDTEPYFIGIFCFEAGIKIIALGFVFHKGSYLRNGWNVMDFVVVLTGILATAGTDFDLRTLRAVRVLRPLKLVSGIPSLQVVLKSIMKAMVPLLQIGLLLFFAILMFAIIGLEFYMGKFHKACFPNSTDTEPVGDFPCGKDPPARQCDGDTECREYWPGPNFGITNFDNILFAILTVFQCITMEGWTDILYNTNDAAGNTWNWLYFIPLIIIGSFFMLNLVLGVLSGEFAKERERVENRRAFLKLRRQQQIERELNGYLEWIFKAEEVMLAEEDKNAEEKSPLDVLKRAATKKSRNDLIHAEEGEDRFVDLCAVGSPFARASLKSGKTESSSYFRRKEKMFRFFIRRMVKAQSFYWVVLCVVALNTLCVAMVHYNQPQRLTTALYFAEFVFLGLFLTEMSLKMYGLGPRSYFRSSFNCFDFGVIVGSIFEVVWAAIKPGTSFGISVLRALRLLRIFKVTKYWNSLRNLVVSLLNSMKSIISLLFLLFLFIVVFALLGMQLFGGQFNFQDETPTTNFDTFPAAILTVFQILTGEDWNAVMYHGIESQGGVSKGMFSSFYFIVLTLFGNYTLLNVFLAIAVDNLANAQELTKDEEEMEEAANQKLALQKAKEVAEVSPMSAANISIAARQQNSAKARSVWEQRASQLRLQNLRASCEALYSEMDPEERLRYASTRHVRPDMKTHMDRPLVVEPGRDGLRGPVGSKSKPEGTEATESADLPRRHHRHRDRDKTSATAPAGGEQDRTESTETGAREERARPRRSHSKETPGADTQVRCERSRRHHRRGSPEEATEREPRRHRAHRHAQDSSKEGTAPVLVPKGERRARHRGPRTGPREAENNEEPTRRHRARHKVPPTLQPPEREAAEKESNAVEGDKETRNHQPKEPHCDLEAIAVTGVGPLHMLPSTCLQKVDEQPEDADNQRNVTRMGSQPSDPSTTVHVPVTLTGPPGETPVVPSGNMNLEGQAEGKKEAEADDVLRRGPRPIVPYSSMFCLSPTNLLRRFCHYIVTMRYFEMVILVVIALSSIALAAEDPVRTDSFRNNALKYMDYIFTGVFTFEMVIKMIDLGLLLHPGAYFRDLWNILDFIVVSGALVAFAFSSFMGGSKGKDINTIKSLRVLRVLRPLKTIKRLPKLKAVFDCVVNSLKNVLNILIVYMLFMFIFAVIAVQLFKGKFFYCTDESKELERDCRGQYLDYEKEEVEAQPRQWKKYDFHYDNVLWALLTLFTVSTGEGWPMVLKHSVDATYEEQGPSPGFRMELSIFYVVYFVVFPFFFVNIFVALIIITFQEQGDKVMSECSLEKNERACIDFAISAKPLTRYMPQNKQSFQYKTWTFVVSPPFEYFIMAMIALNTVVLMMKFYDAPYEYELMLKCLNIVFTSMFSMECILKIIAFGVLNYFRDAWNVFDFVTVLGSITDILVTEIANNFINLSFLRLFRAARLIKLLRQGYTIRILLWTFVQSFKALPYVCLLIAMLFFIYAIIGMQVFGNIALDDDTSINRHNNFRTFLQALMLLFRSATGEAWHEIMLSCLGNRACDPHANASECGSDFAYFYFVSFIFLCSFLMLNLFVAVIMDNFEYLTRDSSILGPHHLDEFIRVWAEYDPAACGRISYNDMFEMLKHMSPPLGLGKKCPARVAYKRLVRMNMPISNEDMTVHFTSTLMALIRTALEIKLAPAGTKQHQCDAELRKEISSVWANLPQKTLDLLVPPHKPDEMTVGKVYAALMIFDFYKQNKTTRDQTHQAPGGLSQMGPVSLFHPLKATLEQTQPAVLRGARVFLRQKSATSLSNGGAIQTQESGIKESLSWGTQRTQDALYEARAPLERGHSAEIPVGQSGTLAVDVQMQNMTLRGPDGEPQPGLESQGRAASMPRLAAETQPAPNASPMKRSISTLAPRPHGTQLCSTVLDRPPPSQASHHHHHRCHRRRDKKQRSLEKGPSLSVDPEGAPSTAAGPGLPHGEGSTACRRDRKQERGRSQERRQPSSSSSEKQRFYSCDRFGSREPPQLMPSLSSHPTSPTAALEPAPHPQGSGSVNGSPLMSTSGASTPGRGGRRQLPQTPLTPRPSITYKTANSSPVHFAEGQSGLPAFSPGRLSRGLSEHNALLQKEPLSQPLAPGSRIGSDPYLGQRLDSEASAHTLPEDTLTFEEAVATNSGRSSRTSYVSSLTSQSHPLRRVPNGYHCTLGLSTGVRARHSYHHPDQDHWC
Sequence of N-type calcium channels (O08532 25-956 partner limits assumed): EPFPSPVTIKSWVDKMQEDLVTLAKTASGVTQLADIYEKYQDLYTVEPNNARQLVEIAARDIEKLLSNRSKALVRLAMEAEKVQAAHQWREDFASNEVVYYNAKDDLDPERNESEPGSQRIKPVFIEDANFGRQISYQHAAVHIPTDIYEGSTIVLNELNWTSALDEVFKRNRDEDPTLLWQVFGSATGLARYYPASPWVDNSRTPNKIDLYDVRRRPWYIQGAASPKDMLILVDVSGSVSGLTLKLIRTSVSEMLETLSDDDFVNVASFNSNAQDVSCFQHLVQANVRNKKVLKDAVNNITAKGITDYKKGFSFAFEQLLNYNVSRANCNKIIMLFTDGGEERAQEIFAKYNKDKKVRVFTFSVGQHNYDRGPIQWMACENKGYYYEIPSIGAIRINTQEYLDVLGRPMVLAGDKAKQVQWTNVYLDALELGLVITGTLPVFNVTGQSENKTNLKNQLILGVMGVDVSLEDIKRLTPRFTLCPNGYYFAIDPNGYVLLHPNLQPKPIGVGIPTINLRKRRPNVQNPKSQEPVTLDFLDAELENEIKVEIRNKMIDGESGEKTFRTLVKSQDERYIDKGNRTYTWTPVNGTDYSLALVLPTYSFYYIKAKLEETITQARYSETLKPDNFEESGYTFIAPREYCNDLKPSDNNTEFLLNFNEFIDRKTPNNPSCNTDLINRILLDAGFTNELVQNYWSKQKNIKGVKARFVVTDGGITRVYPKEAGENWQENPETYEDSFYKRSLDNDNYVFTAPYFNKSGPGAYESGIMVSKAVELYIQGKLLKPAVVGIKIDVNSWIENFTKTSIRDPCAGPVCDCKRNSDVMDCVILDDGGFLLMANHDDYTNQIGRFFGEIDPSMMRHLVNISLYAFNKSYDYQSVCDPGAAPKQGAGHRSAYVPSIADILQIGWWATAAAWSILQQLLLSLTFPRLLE
Sequence of N-type calcium channels (O08532 957-1103 partner limits assumed): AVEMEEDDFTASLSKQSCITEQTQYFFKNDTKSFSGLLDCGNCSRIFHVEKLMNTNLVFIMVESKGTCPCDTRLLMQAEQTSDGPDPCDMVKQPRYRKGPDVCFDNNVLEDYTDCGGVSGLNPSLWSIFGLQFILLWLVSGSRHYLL
Sequence of N-type calcium channels (P54285 whole entry partner): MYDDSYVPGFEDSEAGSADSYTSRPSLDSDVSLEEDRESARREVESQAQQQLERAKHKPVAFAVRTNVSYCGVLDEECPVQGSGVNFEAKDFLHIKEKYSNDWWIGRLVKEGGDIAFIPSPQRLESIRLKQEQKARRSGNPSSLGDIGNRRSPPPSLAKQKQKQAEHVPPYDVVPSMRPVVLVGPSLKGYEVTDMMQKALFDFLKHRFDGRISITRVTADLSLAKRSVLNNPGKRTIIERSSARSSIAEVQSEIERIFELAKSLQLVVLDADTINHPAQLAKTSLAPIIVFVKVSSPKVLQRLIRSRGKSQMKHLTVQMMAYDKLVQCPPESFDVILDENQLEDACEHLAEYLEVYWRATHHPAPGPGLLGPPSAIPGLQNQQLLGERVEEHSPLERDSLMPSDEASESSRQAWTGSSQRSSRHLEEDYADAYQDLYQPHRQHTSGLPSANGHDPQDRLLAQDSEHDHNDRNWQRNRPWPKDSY

Compound: 1987: D-isomer of Tat-NR2B9c ([dY]G[dR][dK][dK][dR][dR][dQ][dR][dR][dR][dA][dL][dS][dS][dI][dE][dS][dD][dV]) [Peptide 1987]
- Ca2+ current shown as a percentage (normalized to current before peptide) (N-type calcium channels): 82+/−2.2%
- inhibition of N-type calcium channel activity (in words) (N-type calcium channels): significant improvement in channel activity over TAT alone although still displayed some reduction

Compound: N[C@@H](Cc1ccc(O)c(O)c1)C(=O)O [Levodopa]
- halflife [1]: halflife = 1.5 hrs

Compound: CC[C@H](C)C(=O)O[C@H]1C[C@H](O)C=C2C=C[C@H](C)[C@H](CC[C@@H](O)C[C@@H](O)CC(=O)O)[C@H]21 [Pravachol ® (pravastatin), pravastatin]
- bioavailability [1]: efficacy, low

Compound: NCCCC[C@H](N[C@@H](CCc1ccccc1)C(=O)O)C(=O)N1CCC[C@H]1C(=O)O [Prinivil ® (lininopril), lininopril]
- halflife [1]: crossing, 12 hr

Compound: FGRKKRRQRRRALSSIESDV (also: fluorescent label, place not given here (F-Tat-NR2B9c)) [Peptide 1995]
- Ca2+ current shown as a percentage (normalized to current before peptide) (N-type calcium channels; [3]): 97+/−0.2%

Compound: FGRKKRRQRRRKLSSIESDV (also: fluorescent label, place not given here (F-Tat-NR2B9c)) [Peptide 1993]
- inhibition of N-type calcium channel activity (in words) (N-type calcium channels; FIG. 2, peptide at 100 μM): no significant inhibition
- Ca2+ current shown as a percentage (normalized to current before peptide) (N-type calcium channels; [3]): 91+/−1.6%
- reduction of infarct size [2]: equally effective in reducing infarct size

Compound: KLSSIESDV (Synthetic active peptide - 1991 2B9c) [Peptide 1991]
- inhibition of N-type calcium channel activity (in words) (N-type calcium channels; FIG. 2, peptide at 100 μM): no significant inhibition
- Ca2+ current shown as a percentage (normalized to current before peptide) (N-type calcium channels; [3]): 94+/−1.7%

Compound: YGRKKRRQRRR [Peptide 1990, reference compound]
- Ca2+ current shown as a percentage (normalized to current before peptide) (N-type calcium channels): 57+/−1.6%

Compound: YGRKKRRQRRRALSSIESDV (Synthetic peptide - 1994 Tat-NR2B9c K to A) [Peptide 1994]
- inhibition of N-type calcium channel activity (in words) (N-type calcium channels; FIG. 2, peptide at 100 μM): significant improvement in channel activity over TAT alone although still displayed some reduction
- inhibition of N-type calcium channel activity (in words) (N-type calcium channels; FIG. 2, peptide at 100 μM, listed as 1994 Tat-NR2B9c K to A): no significant inhibition
- Ca2+ current shown as a percentage (normalized to current before peptide) (N-type calcium channels; [3]): 77+/−1.8%

Compound: YGRKKRRQRRRKLSSIEADA (Synthetic peptide - 1992 Tat-NR2B9c-AA) [Peptide 1992]
- inhibition of N-type calcium channel activity (in words) (N-type calcium channels; FIG. 2, peptide at 100 μM): significant improvement in channel activity over TAT alone although still displayed some reduction
- Ca2+ current shown as a percentage (normalized to current before peptide) (N-type calcium channels; [3]): 74+/−2.4%

Compound: YGRKKRRQRRRKLSSIESDV [Tat-NR2B9c, reference compound]
- inhibition of radiolabeled ω-Conotoxin GVIA binding to N-type Ca channels (N-type Ca channels): 100%
- frequency (use) dependence of block of Ca2+ currents (N-type calcium channels; 100 μM, 0.07, 10, 20, 50 Hz, FIG. 6): not frequency dependent
- Ca2+ current shown as a percentage (normalized to current before peptide) (N-type calcium channels; [3]): 68+/−1.7%
- voltage dependence of inhibition of Ca2+ current (N-type calcium channels; steps from −40 to +50 mV, FIG. 7): independent of voltage
- infarct size (percent of hemisphere) [2, 4]: significantly decreased infarct sizes
- reduction of infarct size [2]: equally effective in reducing infarct size
- neuroprotection, infarct size (MCAO model of stroke): neuroprotective as seen by a reduced infarct size

Compound: YGRKKRRQRRRKLSSIESDX (YGRKKRRQRRRKLSSIESD[Nva]) [Peptide 1976]
- infarct size (percent of hemisphere) [2, 4]: significantly decreased infarct sizes

Compound: YGRKKRRQRRRKLSSIESDX [1976] (YGRKKRRQRRRKLSSIESD[Nva]) [Peptide 1976]
- Ca2+ current shown as a percentage (normalized to current before peptide) (N-type calcium channels; [3]): 66+/−3.4%

Compound: YGRKKRRQRRRKLSSIESDX [1977] (YGRKKRRQRRRKLSSIESD[Tle]) [Peptide 1977]
- Ca2+ current shown as a percentage (normalized to current before peptide) (N-type calcium channels; [3]): 65+/−5.1%

Compound: YGRKKRRQRRRKLSSIETDX (YGRKKRRQRRRKLSSIETD[Nva]) [Peptide 1975]
- infarct size (percent of hemisphere) [2, 4]: some reduction in infarct size

Compound: YGRKKRRQRRRKLSSIEXDV (YGRKKRRQRRRKLSSIE[L‑2‑amino‑3‑ureidopropionic acid]DV) [Peptide 1978]
- infarct size (percent of hemisphere) ([2]; rat, in vivo, iv): some reduction in infarct size
